Test results as given in the NTF2 design screens of Basanta et al. (2020).

Experiment: protease stability score; higher = more stable; yeast display proteolysis, trypsin and chymotrypsin;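 note: log10 excess protease needed over predicted unfolded state with 0 meaning unfolded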
With “DEEDVEKMVRLVRDGDWEQFARNADENVRIQIGNREVHGRNEAHKAADKLTKHIDHFRIDRYDRNGDKLDVLFRMTVNGQEVKARMYVEVHNGRVTRMEIRATSEEILKRIDEVLS” the protease stability score was 1.37. For “DEEHMQELAEELVKVMKRGDFKRYLDLASENAEVTYGEKSVRGREDLHKMQEELEKKVDHIHMKDFRVSGNQIHLFFVVHHDGRSREVVVTIEYHNGRITSVTYDEK”, the protease stability score was -0.075. Sequence “DDRDRKKQMSKLIEIFKEGDPRKWMELLDENARIQIGDTRIRGREHASDWLKKLRDHVDSISIHDMEVDGNHIRVVIEVVIDGRSAVYKFVVHLKNGKVKHVDVSATSKEHENNMSR” has a protease stability score of 1.5. “DEKDVKTAVKDFNTGSFDRFKDLADKDVTARIGNHTVKGHENFQHMMKNLKDRIDHFDVDSMTIKGNEAQMEYRFEINGHDIVVILRVDIHNGRIKHMEVEFRNEEQKKRFDDNQG” gave a protease stability score of 0.945. “DDHVNREINRLMEKNDEQKFVDQADENASMDVGNKRYHGRDAAIKAARAWRKAADHVRIKRFEYSNGKIIIVVVVQFNGHRYDVTIDIVHHNGKVKEFVVRFTDPEQERDFRDWLG” showed a protease stability score of 0.509. Sequence “DERAKEVFKELIEAWKHGNEDQVREMADKDARFTVGDKEIHGREEWAKQIRERHEKIRFEMRIRHVHVNGDRLSIEADFSVDINGQPLSYRMKIELRIHNGKIKELVFQVSEEDKNKQKR” has a protease stability score of 0.576. With “DEEEIEDVARKLNTGNKDDMRELADKDVKAQVGDKEVHGRENLVRIMKRLKDQADHIKVDEVHVQGNRIQVRFQMNINGTTFDVSFVAKVSNGHIKYFSLRARDPRLDEKILRILK” the protease stability score was 0.493. “DEEDLKEFVKILKEGDPEKLKKMVDENVTIEIGDKRVSGKEKARDLAENFRERVDSHHIHRVDIEGERMVVDVEVSVNGRRIRYTLFAEVHNGKLKQQSVQYTSEEQRKLLTEMWT” gave a protease stability score of 0.3. For “DEENREVAERWLDALKRGDPKKANEQMDPNARLRVGNKTVHGREDFEQMIRKWQEHMSFSVETMTVQVEGNKIIIKATREVVVNGRPHKDTFEFEIEIQNGKIKEITIHFPEQELKEIED”, the protease stability score was 0.815. “DEKEIRKLLETMLKAFVNGNLEVVRKMLKDDGEVEYLDTRRHGPDRAVELVKRLLDLGYEVEYKEVHVKGDTVTANVEANADGKTVRFQVTYQARGRRVDNFKVKYDEDAQKVIKHG” showed a protease stability score of 1.79. In the case of “EEEDAKRFKHLNERNDFTSLAKQVDEDATLRVGDKEIHGRERVTEFLEKAERAIDHVDIDSVDWSGDHVQFDAKYQVNGTTHHVIVRFRIHNGRIKYMQWDFTDDEVARRFLDNVQ”, the protease stability score is reported as 0.573. In the case of “DDQDRSHAVRLMRTGNFKEWADQADKDVSMQVGDKEVRGREQVIKMLKRLQEAADHVQVKSIHTQGEKMKADVTININGDQIRVIIEVVVEGDKLKELRIQFTSEHDEKIMHEQLQ”, the protease stability score is reported as 1.14. For “DEHEKMKKHMTEWRSAFKRGDPDTVRKLADKDVDVEVGDKVLHGREQVANHVVDLARTVDHVDIRIETMEVNGDHFVLVMSAVFDVNGKRDERKFVLVAKLHNGTIKVKNMKRS”, the protease stability score was 0.07. “DEDDLRHVEKVLRENDEDTFAEMADEDVSADIGDKTLTGREEVKKMLQKLHKQADHVEIKSVTNRGDNVKVDMVMNYNGRNLRFSRSAEFTNGRIKHVSIRVTSEEDQDVLQRLLD” showed a protease stability score of 0.811. Work on “DDDRKARDFWRKFKEVLDKGDSEENDKLVDENAKFEYGDKTLHGREDAMRWNKHLTTRVDHLRMEVEDFKVHNGKIDVQVRLDVNVNGQQRQHDVKLVAEIDGDKVKLHSLTVK” yielded a protease stability score of 0.009. In the case of “DEEQDARRIAELLDKVFRNNDEDQFMRLMDPNAEVVVGDKTYRGREQARSAMSEIVKHFDHVHLKLDSFSNHNGRVTASNTLHADSNGKKRKVKVTIHFDVKGDKAVIKHLTIE”, the protease stability score is reported as 0.866. “DEKIKQNIEEFLKAVQHGDEERMTQLVDPNAKIVVGNQRVHGMEEYARDIVRKVKEIRIKIDRMHISVQGNKAVITMVYVININGKPVTFRAVYIYEVHDGRVKRVKNNIPEEDQKKVDS” gave a protease stability score of 0.733. For “EKEIVNNFKDWVRALTTGDEDRLRNYADPNAQFVVGEKRFHGMDDYVEDMRRRRTEIRVEIRVHHMNSTGEKIEIHAEQTHEHNGKPETHEFKMKAEVHNGRHKSVTQHDDG”, the protease stability score was 0.201. “DEKDKATKMMETIKQAWDRNNPQQVASQFDKDAHIRVGDKMIHGHEQLKEFVQDVLDTYDHIKLTVTSVKQHNGRVVIVVQVHLEHNGRNDTRHYVVIIEVDNGHIRIKTMVDK” showed a protease stability score of 1.16. For “DKEEVEKIAREALEAAVKGDEDKLKTYLGPDVKYVLGDQEYQGQQVAELVMKLIKKDGARLQLETLKVEGNTVQAQYQFHVDGVTRKAHITMKVKGGRVDEWQVHIDDHAKEALKKG”, the protease stability score was 1.28. “DENLLDHMKRLFESGDWDDFSKNADKHVRVHIGEFNYRGREQARTVMNKLQKSADHVEIKRISVHNGQLQMDVTVVVNGETITVRIAAHVSNGRFVELRMSATDSKDKKALQKVQS” gave a protease stability score of 1.03. Work on “DDSKAEKFARDYVKNLHRGNQDQLARMVDPNVHFEYGDKQVHGREDYKQFNRRLRERVDHIQLKDFRIQGEKIRIEANFNVNGVNADIVFNFQIENGRVTRANMHFRSEDQEKQFHQ” yielded a protease stability score of 0.161. In the case of “DRDQEDSFAKKVADVIQTGNPDDMRKLADEDARVDVGDKQYTGREHVDEAVENERKRIDHQQINSFSVNNGQIHATVSYVHNGQTHRFVVNVEIHNGHIKRARWQSK”, the protease stability score is reported as 0.273. Sequence “DEHLLKEAEKHLKQIERGNPDEAVKMVDPNAKFHIGDKTIHGREHWREWVERQVKDQRFKIRLDDMEDHNGKLVLEVTATYDINGKPVTLTVRWEFDIHNGRAQSVRVQVDPKQQEDLKR” has a protease stability score of 0.535. With “DEDKEKKINKDIADAWQNGDEQQMQKQIPPEVRIQVGDKTVHGREHIHKWMRRWRERVDHLQLKDMTAHNGNMRIKFVIRHNGRQDVRQVHIQVDNGTVHTASFDTE” the protease stability score was 0.43. Sequence “DEKEEAHRALTAMHKMMTGDFKEVMKNADENVHVEIGDKEFHGREDLHDFAREIQERVDDFRVSSVTAKGDSAVLNVRQDYNGRNERVRLEVQVSNGKIKHVRFQTG” has a protease stability score of -0.341. Work on “DHQASEKLSQLWKALNTGNPEQFSKNADPHVRHHVGDTSIQGREQFNEQIKREQKEMRVQIQVQSIHVRGDKIRVRAVYTFHINGQPRKDTFVAKFVVKNGRIKKASIRIDPRKVKERNS” yielded a protease stability score of 0.11. Sequence “DEERQKEALKVHKKGDFDKILDQADEDVQVVIGDKKYHGREEATTALKKILDSIDHLKFESITIQNGRVRVDAILEFNGQQNRVIIVVEVHNGKVKKVEIRVTDPSQEDKLKKRVD” has a protease stability score of -0.203. For “DREDQEEVARHLVEVLERGDPQKMLELADPNVRAEVGDKRYHGREDLKSIMDELSRQVDRIQVVHLDVKGNTVRVTVKNRVNGVVVDLVIIFHFRNGKLRDVTIDARNEEQLKKREG”, the protease stability score was 0.754. Work on “DQDQMRKAEQAMRAEQKNNKEELDELFDPNVEVEVGDFNVEGREEMNKEVDDLKKQARFHWSLHHVEVRGNRMHFKLRFEIQVNGQPRKNTANVEIEAHNGKFTSKTNRIDPRFVKTLLG” yielded a protease stability score of 0.55. “DEELEDLASRIWKAIDHNNPDELKRNFDENVNAQVGDTTYHGMDDWAREIVHNLKEMRIHWSDMRVSKQGEQVRIKARFVTKHNGRPQNMRMTAVFEAHNGRVQDYKQNNRG” gave a protease stability score of -0.27. With “DEEKMEIVLNAFTAMATNNEEDIERLMDPNVKVTIGDTVIHGREQLQKNADRHRRSARINIKSMSAEVQGDTVRVVVNATREHNGRPQTFQLRAVAVAHNGKVKELNVEEKQ” the protease stability score was 1.48. With “DDKEKAEKFLTKWVEAIKTGNEEQLNELADPNVRFKYGDRVIHGREQQAKHNKELRERADRMEFRVDDVDIRPGKVVVHARYTVNINGKEETHQYTATADVKNGRLQITEQQNS” the protease stability score was -0.092. “DEDDERQMEEVVETGDPDRMAENADPNVRVDVGDHEVHGRERAQKMWQQEKKQVDHLEVKEVHTENGRINADVVVVVNGRSLQVTVVASMHNGKIEYYSIQFTSEKQKKQWHDANG” gave a protease stability score of -0.048. “DEEKLDVARQYFEAVERGDEDRALELVDKDVRVDVGEKRVRGREEAKTQIRREEEEIRLRVEHVDFTAKGDRVRVRVVQVENINGRPVRFHYTMNMTMHNGRIKRIDVQIPEEVQEQLRG” gave a protease stability score of -0.146. In the case of “DEENVKIARELLKNRTSGNEEHFKRLVDPNARFNVGDTRIHGREEYVKQVRDDFRNSRESIDVRSVSASGDKVEVDMKMHFEHNGQPRSKKVILDAKIHNGRLKEYRVEEEK”, the protease stability score is reported as -0.045. “DDTQAREQAHRFMEAMRTGDPDTLRKLMDKDVRVTVGDHTYHGRESVAHAVITMVESIDHISVKDIKVENGTARVDFVVTVNGRRQSYDAVLEVDNGRIRYVQMHEK” gave a protease stability score of 0.857. With “DEDELAQKLVEQMVKAIRHGDPHDFVKMIDKNATMDVGDKRLHGREKLEEFIKKLVDKYDHLDAKVSHMDLDNGQIKVNIEIHLVKNGKTDHITLDARADVTNGDARFVDFQWR” the protease stability score was 1.47. “DEEAQKTAEDFLRAFQDGNHEQLLKLMDKDAQAQYGDQRLHGREKLRQHIYELLKNIRLEYSIDDVKVDGNNVRIHMQYEAEVNGQPVKDKAKVDIVFHNGKIKTFMVHFSEEYVQTVRS” gave a protease stability score of 0.903. With “DEHAARVFLELLKAAETGDEKRLKRLADPNARIQVGDKHVDGMDEATKKIVKTWEKSRIRFEIKSYDVDGEKVRVNMQMTNRDNGEPDSKNAHFTVEVRNGHIKHADLQHHG” the protease stability score was -0.223. Work on “DEKKIKEYVHELNRAFQNGDEDRLNQMMDKNVRAQYGDKEYHGRENAKKVMKDFRDQFDHLEIHSVNVRGDRVDIEAEAHNNGRTEHWIITIRLHNGHMTSIVIRKS” yielded a protease stability score of -0.319. With “DEQEDRDMKKMYKNLQEGDDQRVADMADPNARWRVGDKTYHGKDSIRHWAKEVHDRMHFRIQSITVQNENGKVKVEIKWVTDENGKPVDQTVQVKAELHNGHIVDIDITTQS” the protease stability score was 0.731. “DEDAVKVAEKFVEVEETGSEDDFKRLADKDAKIRVGENHVHGRESLLDELRKRRKQINIVIHHVRAEDRGDKVDVEIEAVDERNGKPNQYNVKFKVKMHNGRVKQIDRDRDR” gave a protease stability score of 0.168. In the case of “DEEKHKQKLRKFAKDFVEGDPEEISKNVDEDVKVHIGDQDVSGREEAMKVIEEIKKRADHIQITSVEASNGRLRINVVIQVNGRNVTAHVTVDADNGRVKKVTMDPDQVRKLKS”, the protease stability score is reported as 0.827. For “DQHAKRLFDEVVSAIKDGDPHQVKKQLDKNVRARVGDKTISGRETFAQQRKTERDEIEWDVEDYKADVNGDHIKVDMKVKSEHNGRPTSDKIDVDVQWHNGHVVRMEFKETR”, the protease stability score was -0.392. For “DEEQRLKQVFDTLVKAFEDNDEDQIRDMMDPNVTVRVGDKEVHGRDEVARRVVDERRKVDHVHNDIKDYRVRGNHLVMKIDQVFNHNGETRKQTATMVVKVHDGRAVVETLHYD”, the protease stability score was 1.09. With “DEEAQELAERVFKALQTGDPDTLVKNMDPNVRLDVGDKKIQGREEAKKHADRLRHEQKVEYDSYEVRVHDGRVVVRLHWKFTVNGHPRTLTLTVEMKAHNGKVKHFSQRVPEDVLRKMKS” the protease stability score was -0.049. Sequence “DESVRRNFEDLLRAEETGDPDRVMDLVDPNARIQVGDKYLQGREQIDETMERHKSEIRFSIDRLSATDHNGVVDVTMSMKKNVNGKPKKFRAEVNVKAHNGKLKLLDMKIDG” has a protease stability score of -0.284. Work on “DEDVVKEWMTDQRNNNEKRLQSLVDPNAKLEYGDKSIHGDEEMHEWAKKLRESVDHWEVKEYDIHNGTAEADVVVQFNGREIRYQFVAVAHNGSVTSIVYRARDEDFERFLDDIFS” yielded a protease stability score of 0.165. “DEHDLDKWRQVMEHNDFDKLVRLADPNVKIVVGDQEYHGREQYKELMDKLEHHVDHMELHSVSITNGEVHARLTVIINGKSIEYVFKFVVDNGKLKKLRIQFTDPEDEKIWKRAMS” showed a protease stability score of 1.7.
